Laboratory results: patent publication US10525113B2, “Micellar polypeptide vaccine having pegylated phospholipids as carrier” (INSTITUTE OF BIOPHYSICS, CHINESE ACADEMY OF SCIENCES, priority 2014, dated 2020)
Ends that are not written are not given here. * marks the point of attachment. Palmitoyl = CCCCCCCCCCCCCCCC(=O)*

Columns and labels:
[1] = Entrapment efficiency of fatty-acidified antigenic polypeptide in PEG-PE micelle (centrifugation, rhodamine fluorescence); type: physicochemical; settings: lipid:MPLA (w/w) 100:1
Description: According to the proportions shown in Table 2 and Table 3, the micelles containing different proportions of polypeptides are prepared. The preparation process is carried out in the same manner as described in Embodiment 1. The prepared micelle vaccine solutions of different proportions are subjected to 14,000 g high-speed centrifugation for 30 minutes. The undissolved free antigenic polypeptide is separated from the antigen entrapped by micelle in the solution.
The maximal excitation wavelength of the rhodamine fluorescence labeled by the polypeptide is 535 nm and the maximum emission wavelength is 590 nm.
The antigen content in the solution is detected by fluorescence spectrophotometry, and then the effective entrapment efficiency of antigenic polypeptide is calculated according to the formula (see Table 2. Table 3, line 3). It can be seen that, in the condition where the mass ratio of PEG-PE to the fatty-acid-modified polypeptide is greater than or equal to 10:1, the entrapment efficiency is about 100%.

[2] = 100 μL subcutaneous, shoulder; 0 hour to 7 days; FIG. 3
Description: 20 μL of 10 mg/mL DMSO stock solution of rhodamine-labeled, fatty-acidified E7 polypeptide (sequence: palmitic acid-[sequence], rhodamine labeled in amino acid K, synthesized in Jill Biochemical Co., Ltd.) is added to 1 mL of sterile water to obtain a fluorescent polypeptide solution with the concentration of 0.2 mg/mL.
10 mg of PEG-PE powder is weighed and dissolved in 1 mL of chloroform in a test tube, and 0.2 mL of solution of rhodamine-labeled, fatty-acidified E7 polypeptide in methanol (1 mg/mL) is taken such that in micelle. The solution is gently shaken according to the method in Embodiment 1 to mix evenly. Nitrogen is used to blow and dry the solution to form a uniform thin membrane. The residual organic solvent and moisture are completely removed in a vacuum drier overnight. 1 mL of sterile normal saline is added, and 53° C. water bath incubation is conducted for 30 minutes for hydrated lipid membrane. A light purple uniform transparent solution is obtained, in which the concentration of fluorescent polypeptide is 0.2 mg/mL. […]
7 mg of DPPC and 3 mg of cholesterol are dissolved in chloroform separately and then mixed in a test tube, and 0.2 mL of solution of rhodamine-labeled, fatty-acidified E7 polypeptide in methanol (1 mg/mL) is taken. […] The concentration of fluorescence polypeptide is 0.2 mg/mL. […]

[3] = water / aqueous solution
Description: Thus, free antigenic polypeptide can be separated from the antigenic polypeptide loaded on micelle, and then the entrapment efficiency of antigenic polypeptide is calculated based on the change in the content of the antigenic polypeptide loaded on micelle in the solution. The entrapment efficiency=the amount of antigen to be entrapped/total antigen ×100%.

Substance | entrapment efficiency (%) ([1]; lipid:peptide (w/w) 1:1) | entrapment efficiency (%) ([1]; lipid:peptide (w/w) 2:1) | entrapment efficiency (%) ([1]; lipid:peptide (w/w) 5:1) | entrapment efficiency (%) ([1]; lipid:peptide (w/w) 10:1) | entrapment efficiency (%) ([1]; lipid:peptide (w/w) 20:1) | entrapment efficiency (%) ([1]; lipid:peptide (w/w) 50:1) | subcutaneous diffusion / localized retention at injection site [2] | solubility / state in water [3]
palmitic acid-EQLESIINFEKLTEWKD (Palmitoyl-EQLESIINFEKLTEWKD) [OT-1 Antigenic Polypeptide] | 27.91% | 40.10% | 91.76% | 100.00% | 100.00% | 100.00% | – | –
palmitic acid-GQAEPDRAHYNIVTFCCKCD (Palmitoyl-GQAEPDRAHYNIVTFCCKCD; cysteine pairing not given here) [E7 Antigenic Polypeptide] | 25.48% | 67.76% | 97.99% | 100.00% | 100.00% | 100.00% | subcutaneous localized retention at the injection site is evident | present in an aggregated form in aqueous solution
